For one substance, stoichiometry N results are on record in publication doi:10.1101/2025.03.26.645568.

This assay concerns the target Mam1A_(107-213) (Mycobacterium tuberculosis H37Rv). As to the kind of experiment: SEC-MALS. On the technique in general: Size exclusion chromatography separates by hydrodynamic size, large species first.

By stoichiometry N is commonly meant the number of molecules, sites or subunits per partner or assembly. In turn, Mam1A_(107-213) (domain or fragment) gave a stoichiometry N of 4.
